Among the data in article PMC9519043 are binding signal values, retold here.

Data set [1] deals with HCoV OC43 virus particle (Betacoronavirus 1 HCoV OC43 (ATCC VR-1558)). Briefly: microfluidic affinity capture, RT-qPCR. Conditions: 5' amino C12 linker and TEG spacer 9, 3' inverted dT, SPR (BIAcore T200, […], pH not stated.
Data set [2] deals with HCoV 229E virus particle (Human coronavirus 229E (ATCC VR-740)). Briefly: microfluidic affinity capture, RT-qPCR. Conditions: 5' amino C12 linker and TEG spacer 9, 3' inverted dT, SPR (BIAcore T200, […], pH not stated. (In qPCR the cycle at which signal appears reflects the starting amount.)

As to “CAGCACCGACCTTGTGCTTTGGGAGTGCTGGTCCAAGGGCGTTAATGGACA [51-nt SARS-CoV-2 aptamer, chip form]”, the binding signal in data set [1] worked out at 3.5 % recovery; in data set [2] it was 0.7 % recovery.
